Results reported in the nanobody polyreactivity screen of Harvey et al. (2022).

Experiment: yeast display, Sf9 membrane polyspecificity reagent, FACS + sequencing; frameworks hold sequencing errors
Outline: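 Genes from sorted yeast were amplified by colony PCR, read by MiSeq 2 × 250 sequencing and filtered on CDR length. These cells carried a synthetic nanobody library in Saccharomyces cerevisiae BJ5465 and were sorted by FACS into low and high (top ~1%) gates on anti-HA and streptavidin fluorescence. Polyreactivity is labelled according to the gate of origin.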

Sequence	polyreactivity (PSR sort gate)
QVQLVESGGGLVQAGGSLRLTCAASGRTFRIYAMGWYRQAPGKERELVAAIRWSGGTTYYADSVKGRFTISRDNAKNTVYFQMNSLKPEDTAVYYCAADSTNRYDYWGQGTQVTVSS	high polyreactivity
QVQLVESGGGLVQAGGSLRLTCAASGRTFRPYAMGGYRQAPGKERQLVAAITYSGGSTYYADSVKGRFTISRDNAKNTVYLQMNSLKPEDTAVYYCAAEIAATYRPEYDYWGQGTQVTVSS	high polyreactivity
QVQLVESGGGLVQAGGSLRLTCAASGSIFGAKAIGWYIQAPGKERELVAALTWSDTSTYYADSVKGRFTISRDNAKNTVYLQMNSLKPEDTAVYYCAAEYEWVTWGWGYYYWGQGTQVTVSS	high polyreactivity
QVQLVESGGGLVQAGGSLRLTCAASGSIFGYAMGWSRQAPGKERELVAALSFSGVSTYYAYSVKGRFTISRDNAKNTVYLQMNSLKPEDTAVYYCNAYSDGDEDYWGQGTQVTVSS	low polyreactivity
QVQLVESGGGLVQAGGSLRLTCAASGSIFTYYVRGWYRQAPGKEMELVARISRRGGSTYYADSVKGRFTISRDNAKNTVYLQMNSLKPEDTAFYYCNRVFYYDRDNYDYWGQGTQVTVSS	high polyreactivity
QVQLVESGGGLVQAGGSLRLTCAASGSIFYRYVMGWYRQAPGKEMELVAVISGSGGNTYYADSVKGRFTISRDNAKNTVYLQRNSLTPDDTAVYYCAASWYFLPTQTRPYYGYYYWGQATQVTVSS	high polyreactivity
QVQLVESGGGLVQAGGSLRLTCAASGSTFAFYAMGWYRQAPGKERELVAAITLIGGNTYYADSVKGRFTISRDNAKNTVYLQMYSLKPEDTAVYYFAAGGYYVRYPKSWYNYWGQGTQVTVSS	low polyreactivity
QVQLVESGGGLVQAGGSLRLTCAASGSTFGVYAMGWYRQAPRKDRELFAAISSSTGSTYYADSVKGRFTISRHKAKNTVYLQRNSLKPEDTAVYYRAAAGYGKVRGDYWGQGTQVTVSS	low polyreactivity
QVQLVESGGGLVQAGGSLRLTCAASGSTFHSNAMGWYREAPGKERELVAAISQGGGRTYYADSVKGRFTISRDNAKNTVYLQMNSLKPEDTAVYYCNRRTRGLIDGGMDYWGQGTQVTLSS	low polyreactivity
QVQLVESGGGLVQAGGSLRLTCAASGSTFINYAMGWYRQAPGKERELVAAYADSVKGRFTISRDNAKNTVYLQMNSLKPEDTAVYYCNAVTGEWGQGTQVTVSS	low polyreactivity
QVQLVESGGGLVQAGGSLRLTCAASGSTFITYAMGWYRQAPGKERELVAAIRVIGGRTYYADSVKGRFTISRDNAKNTVYLQMNSLKPEDTAVYYCAARPYKSYGYHYSYDYWGQGTQVTVSS	high polyreactivity
QVQLVESGGGLVQAGGSLRLTCAASGSTFQTYVMGLYIQAPGKERELVAAISSGGSTNYADSVKGRFTISRDNAKNNVYLLMKSLKPEDTAVYYCAAVYWAWGKNEYEYWGQGTQVTVSS	low polyreactivity
QVQLVESGGGLVQAGGSLRLTCAASGSTFQVNDMGWYRQAPGKDRELLASISGGSSTNYADSVKGRFTISRDNAKNTVYLQMHSLQPEDTAVYYCAAYYLSGLRVAYDYWGQGPQVTVSS	low polyreactivity
QVQLVESGGGLVQAGGSLRLTCAASGSTFTGYAMGWSIQAPGKERELVAGITGSGGSTYYADSVKGRFTISRDNAKNTVYLQMNSLKPEDTAVYYCNAVHWGGTYWGLDYWGQGTQVTVSS	low polyreactivity
QVQLVESGGGLVQAGGSLRLTCAASGSTFTVNGMGWYRQAPGKERELVASITWSGGSTYYADSVKGRFTISRDNAKITVYLQMNSLKPEDTAVYYCAADEKLYITGYDYWGQGTQVTVSS	low polyreactivity
QVQLVESGGGLVQAGGSLRLTCAASGSTFVPYVMGWYRQAPGKERELVAVITWTGGSTYYADSVKGRFTISRDNAKNTVYLQMNSLKPEDTAVYYCAAEYSPWFYFEQYDYWGQGTQVTVSS	low polyreactivity
QVQLVESGGGLVQAGGSLRLTCAASGSTFVWYGMGWYRQAPGKEREFVAAISTSGGRTYYADSVKGRFTISRDNAKNTVYLQMNSLKPEDTAVYYCATRPYFTYRWYDYWGQGTQVTVSS	high polyreactivity
QVQLVESGGGLVQAGGSLRLTCAASGSTFWSNSMGWYRQAPGKERELVAAISSRGGSTYYADSVKGRFTISRDNAMNTVYLQMNSLKPEDTAVYYCAARSKRLAHDYWGQGTQVTVSS	high polyreactivity
QVQLVESGGGLVQAGGSLRLTCAASGSTFYSYVMGWYRQAPGKERELVAAIDYSGDSTYYADSVKGRFTISRDNAKNTVYLQMNSLKPEDTAVYYCAKDGVWYYSGTGMDYWGHGTQVTVSS	low polyreactivity
QVQLVESGGGLVQAGGSLRLTCAASGSTLWYYAMGWYRQAPGKERELVADITSSGNTNYADSVKGRFTISRDNAKNTVYLQMNSLKPEDTAVYYCAADSANYQWYLSWQKDDYWGQGTQVTVSS	low polyreactivity
QVQLVESGGGLVQAGGSLRLTCAASGTIFVRLDMGWYRQAPGNEREFVATIGSGSSTYYADSVKGSFTISRDNVKNTVYLQMNSLKPEDTAVYYCAVSAAEQSRHYYWDQGTQVTVSS	low polyreactivity

Sequence	polyreactivity (PSR sort gate)
QVQLVESGGGLVQAGGSLRLTCAASGYIFRLNAMGWYRQAPGKEMELVAGISPGGRTNYADSVKGRFTISRDNAKNTVNLQMNSLKPEDTAVYYCAAAWNTAYWVGSDSLGGGYWGLGTQVTVSS	low polyreactivity
QVQLVESGGGLVQAGGSLRLTCAASGYTLSVNAKGWSRQAPGKEMDLVATNDFGGGSTYYADSVKGRFTISRDNAKNTVYLQMNSLKREDTAVYYCATDGGAAWGRYYWDYGYWGQGTQVTVSS	low polyreactivity
QVQLVESGGGLVQAGGSLRLTCDASGGIFAVNVMGWYRQAPWKERELVAAITSTGSTYYADSVKGRFTISRDNAKNTVYLQMNSLTPEDTAVYYCAADYVYYDSYDDTVFGYDYWGQGTQVTVSS	high polyreactivity
QVQLVESGGGLVQAGGSLRLTCDASGSIFSVYAMGWYRQAPGKERELVAAITSSGGITYYADSVKGRFTISRDNSKNTVYLQMNSLKPEDTAVYYCATDRVLHYWVLSMDYWGQGTQVTVSS	low polyreactivity
QVQLVESGGGLVQAGGSLRLTCDASGSIIRLYAMVWYRQAPGKERELVDAISYNSGTTYYADSVKGRFTISRDNAKNTVYLQMNSLKPADTAVYYCAARRYYNYDWRQGTQVTVSS	high polyreactivity
QVQLVESGGGLVQAGGSLRLTCPASGGIFYDYSMVWYRQAPGKERQLVAAITRSGDSTYYADSVKGRFTISRDNAKNTVYLQMNSLKPEDTAVYYCAADIWSSDYEEFYYWVQGTQVTVSS	low polyreactivity
QVQLVESGGGLVQAGGSLRLTSAASGFTFYPYAMGWYRQATGKEMELVAAINSGGSTYYADSVKGRFTISRDNAKNSVYLQMNSLKPEDTAVYYCAAYGKRGAVAFYYWGQGTQVTVSS	high polyreactivity
QVQLVESGGGLVQAGGSLRLTSAASGRIFYNYAIGWYRQAPGKERELVAAISSSGGSTYYADSVKGRFTISRDNAKNTVYVQMNSLKPEDTAVYYCAAYSYGLYYTYDYWGQGTQVTVSS	high polyreactivity
QVQLVESGGGLVQAGGSLRLTSAASGRTFGTNPMGWYRQETGKERELVDAISRRGGSTYYADSVKARFTISRDNAKNTVNLQMNSLKPEDTAVYYCAKTIGLKHEDEYWGQGTQVTVSS	low polyreactivity
QVQLVESGGGLVQAGGSLRLTSAASGSIFQNYAMGWYRQAPGKERQLVAVIDDSGGITYYADSVKGRFTISRDNAKNTVYLEMNSLKPEDTAVYYCARNVNAKKVLGGFDSWGQGTQVTVSS	low polyreactivity
QVQLVESGGGLVQAGGSLRLTSAGSGRIFDYNAMGCYRQAPGKERELVAAITYSGGSTYYADSVKGRFTISRDNAKNTVYLQMNSLKPEDTAVYYCAAPDPYYHYRYPWQSRYDYNYWGQGTQVTVSS	low polyreactivity
QVQLVESGGGLVQAGGSLRLTSAGSGRIFVPYAMGCYRQAPGKERELVATITFGGGRTYYADSVKGRFTISRDNAKTTVFLQMNSLKPEDTAVYYCNAEGWYSVEYDYWGQGTQVTVSS	low polyreactivity
QVQLVESGGGLVQAGGSLRLTWAASGFILGYYAMGWYRQAPGKERELLPGISRSGGSTYYADSVKGRYTISRDNAKNTVYLQMNSLKPEDTSVYYCAKYPPYYTAYGWKYVYWGQGTQVTLSS	high polyreactivity
QVQLVESGGGLVQAGGSLRSSCAASGSIFQYYALGWYRQAPGNERELVAAISSGGRTNYADSVKGRFTISRDNAKNTVYLQMNSLKPEDTAVYYCAAARYYYQVYRWEYDYWGQGTQVTVSS	high polyreactivity
QVQLVESGGGLVQAGGSLRVSCAASGFTFDYYAMGWYRQAPGKEWEFVAAISSRGDDTYYADSVKGRFTISRDNAKNTVYLQMNSLKPEDTAVYYCAKVWRYGRYEYGYWGHGTQVTVSS	high polyreactivity
QVQLVESGGGLVQAGGSLRVSCAASGFTFGYYGMGWYRQAPGKERELVAAISWSGGSTYYADSVKGRFTISRDNAKYTVYLQMNSLKPEVTAVYYCNADYAGFYQRRYIEDDYWGQGTQVTVSS	low polyreactivity
QVQLVESGGGLVQAGGSLRVSCAASGFTFYQYGMGWYRQAPGKERELVATSTSGGRTNYADSVKGRFTISRDNAKNTVYLQMNSLKPEDTAVYYCNKLPYYPRVGRIGRYYYWGQGTQVTVSS	high polyreactivity
QVQLVESGGGLVQAGGSLRVSCAASGINFDYYVMGWYRQAPGKERELVAAISRSGDRTNYADSVKGRFTSSRDHEKYTVFLLMNSLKPEDTAVYYCAARVRIRGGGYDYWGQGTQVTVSS	high polyreactivity
QVQLVESGGGLVQAGGSLRVSCAASGNTFGPYAMGWYRQAPGKERELVAAISSGGSTNYADSVKGRFTISRDNAKNTVYLQMNSLKPEDTAVYYCARDAFSGSDFSYASIEYDYWGQGTQVTVSS	low polyreactivity
QVQLVESGGGLVQAGGSLRVSCAASGRIFTIYAMGWYRQAPGTEREVVAAISDRGTRTYYADSVKGRFTISRDNAKNTVYVQMNSLKPEDTALYYCATDALYTYGYDYWGQGSQVTVSS	low polyreactivity
